Results on 4 molecules are retold here after PMC5010959.

Several values for one entry are separate records, joined by “and”; a condition that tells them apart may be missing. Equal entries are not always repeated.

In series [1] the target is T1, BoNT/A light chain (LCA) (Clostridium botulinum type A, UniProt P0DPI1 2-448).
Series [2] addresses T1, BoNT/A light chain (LCA). Nature of the series: SPR. For orientation: SPR reads the build-up and loss of mass on a sensor chip optically.

T1 sequence (P0DPI1 2-448): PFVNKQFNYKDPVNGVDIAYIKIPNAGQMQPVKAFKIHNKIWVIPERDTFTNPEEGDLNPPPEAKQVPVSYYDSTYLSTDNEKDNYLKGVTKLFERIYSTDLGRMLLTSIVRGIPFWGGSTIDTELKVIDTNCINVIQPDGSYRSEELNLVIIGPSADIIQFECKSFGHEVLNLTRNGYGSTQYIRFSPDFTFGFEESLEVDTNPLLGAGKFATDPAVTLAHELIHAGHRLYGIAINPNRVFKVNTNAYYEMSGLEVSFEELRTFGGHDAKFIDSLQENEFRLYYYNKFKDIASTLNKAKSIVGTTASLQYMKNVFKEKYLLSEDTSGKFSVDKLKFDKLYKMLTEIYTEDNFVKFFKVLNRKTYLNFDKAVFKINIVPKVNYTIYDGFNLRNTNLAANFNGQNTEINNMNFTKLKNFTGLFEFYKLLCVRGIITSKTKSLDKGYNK

B1: TW3 2'-F modified (XNA)
RNA: GGGUACCCACUCAGGUACGUGGGAAUUGAGCGGGUCACACUAUAAGCACGAGCCUUAGACAGCUUUCUAGAAUUAAGCUUAGGC
modifications: 2'-fluoro pyrimidines (C and U)
One may read the IC50 as the midpoint of a concentration-inhibition curve. Read a low IC50 as higher potency. Usually Ki stands for a measure of affinity in units of concentration, obtained from inhibition or displacement. One may read the Kd as a measure of binding affinity in units of concentration. Turning to B1, in series [1], half-maximal inhibition (IC50) required 727 ± 12 nM; the Ki was 463 nM and 849 nM. This molecule yielded a Kd in series [2] of 27.9 ± 4.3 nM.

B2: TW3 unmodified (structured_RNA)
RNA: B1 RNA
The molecule B2 displayed a Kd in series [2] of 59.1 ± 7.3 nM.

B3: TW1 2'-F modified (XNA)
RNA: GGGUACCCACUCAGGUACGAUUGGUGCGAUAAACUAGACUCGUCAUGCGCAGUCUCCUACAGCUUUCUAGAAUUAAGCUUAGGC
modifications: 2'-fluoro pyrimidines (C and U)
In the case of B3, in series [1], 639 ± 13 nM corresponded to half-maximal inhibition (IC50); the Ki is 433 nM and 720 nM. Further, the Kd in series [2] was 31.4 ± 4.4 nM.

B4: TW1 unmodified (structured_RNA)
RNA: B3 RNA
The molecule B4 gave a dissociation constant Kd in series [2] of 109 ± 9.9 nM.
